# In patent publication US6365161:
# What was measured:
# [1] = molecular target: human FcγRI (CD64) on cells (human) (UniProt P12314); experiment: flow cytometry, fluorescein-conjugated antibody on peripheral blood monocytes
# [2] = molecular target: soluble fusion protein consisting of the extracellular domain of human FcγRI and human IgM heavy chain (sFcγRI-µ) (human) (UniProt P12314); experiment: ELISA on captured FcγRI/IgM heavy chain fusion protein, against a nonspecific human IgG1
# soluble fusion protein consisting of the extracellular domain of human FcγRI and human IgM heavy chain (sFcγRI-µ) (human), sequence (P12314 other isoform, or with tags, fused parts or gaps limits assumed): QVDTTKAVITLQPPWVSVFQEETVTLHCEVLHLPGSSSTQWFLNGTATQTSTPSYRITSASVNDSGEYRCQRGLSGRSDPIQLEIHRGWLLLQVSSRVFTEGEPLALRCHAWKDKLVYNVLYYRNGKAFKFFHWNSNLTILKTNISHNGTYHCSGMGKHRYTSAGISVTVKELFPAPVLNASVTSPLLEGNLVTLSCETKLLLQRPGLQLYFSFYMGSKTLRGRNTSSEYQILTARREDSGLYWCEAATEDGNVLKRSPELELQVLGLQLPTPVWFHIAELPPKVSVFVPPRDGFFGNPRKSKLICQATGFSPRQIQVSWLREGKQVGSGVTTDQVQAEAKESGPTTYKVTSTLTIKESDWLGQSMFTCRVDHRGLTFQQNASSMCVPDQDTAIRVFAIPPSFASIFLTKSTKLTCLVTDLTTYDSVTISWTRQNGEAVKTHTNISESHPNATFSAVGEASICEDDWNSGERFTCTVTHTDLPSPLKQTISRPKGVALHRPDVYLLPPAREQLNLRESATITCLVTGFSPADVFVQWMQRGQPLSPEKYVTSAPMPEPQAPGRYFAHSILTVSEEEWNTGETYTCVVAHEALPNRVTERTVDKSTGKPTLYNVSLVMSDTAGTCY
# human FcγRI (CD64) on cells (human), sequence (P12314 16-374): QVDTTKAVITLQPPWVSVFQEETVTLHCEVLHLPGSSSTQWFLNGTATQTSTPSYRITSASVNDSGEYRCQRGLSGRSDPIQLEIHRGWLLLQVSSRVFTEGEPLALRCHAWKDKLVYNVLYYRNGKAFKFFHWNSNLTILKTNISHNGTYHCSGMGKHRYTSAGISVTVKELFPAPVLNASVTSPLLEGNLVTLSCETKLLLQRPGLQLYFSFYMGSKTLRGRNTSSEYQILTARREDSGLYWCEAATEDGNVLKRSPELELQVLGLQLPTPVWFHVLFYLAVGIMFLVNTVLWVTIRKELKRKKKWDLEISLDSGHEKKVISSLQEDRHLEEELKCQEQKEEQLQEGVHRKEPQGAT
binder,measurement,setting,value
"humanized anti-FcγRI antibody H22 (KOL VH/REI Vκ mAb) (antibody, from a related filing, V domains shown) VH: EVQLVESGGGVVQPGRSLRLSCSSSGFIFSDNYMYWVRQAPGKGLEWVATISDGGSYTYYPDSVKGRFTISRDNSKNTLFLQMDSLRPEDTGVYFCARGYYRYEGAMDYWGQGTPVTVSS VL: DIQLTQSPSSLSASVGDRVTITCKSSQSVLYSSNQKNYLAWYQQKPGKAPKLLIYWASTRESGVPSRFSGSGSGTDFTFTISSLQPEDIATYYCHQYLSSWTFGQGTKVEIK",Antibody sites per cell (antibody sites per cell),[1],10500
same,percent of binding via the Fv portion,[2],> 95%
